Reference: the supplement of paper PMC12042874
± gives the uncertainty stated by the source.

Assay: amyloid nucleation score (Sup35N fusion, yeast selection) (log enrichment); library NNK1; higher = more nucleation; inactive = no reads after selection
Summary of the method: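 For the nucleation score, DiMSum gave the log enrichment of output over input reads, centred on the mode score of non-aggregating sequences. Psi-negative yeast expressing Sup35N fused to peptides of 20 random codons were induced with 100 μM copper sulfate for 24 hours and grown 7 days at 30°C on medium lacking adenine and uracil. Input and output plasmid inserts were Illumina-sequenced, and sequences with under 100 input reads were excluded.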

Substance	amyloid nucleation score
FLLLCRSFFSARTILRCTMV	0.631 ± 0.89
FLLLFDQFSVLMCCAQVLCL	4.56 ± 0.058
FLLMVWDIYECVGNTLKRCA	0.027 ± 0.42
FLMGSYMFTTTVQISHDLMW	-0.354 ± 0.61
FLNGKSGHAVVKLEGLMTNW	0.447 ± 0.32
FLQCNRNSVGRLVAHLCCAR	inactive
FLQLLGGLRSYKTRVCMWCV	-2.21 ± 2.7
FLRPTGHSGCQFGAMSSKKG	0.464 ± 1.2
FLRTD	0.171 ± 1.2
FLTQPFAFIVLCGSKYTSSD	-0.463 ± 0.48
FLVCSFNYGAAPFFGGFMHY	0.679 ± 0.23
FLVQVAWFLPAGGYGDNFCC	0.049 ± 0.39
FLVYGSSGFTAVLGPQCEEG	-0.777 ± 1.4
FLWIYLSNTVLG	-0.535 ± 0.33
FLWSIICSYSQLY	-0.201 ± 0.35
FMATNTKAMGPLRSAK	0.224 ± 0.58
FMEVWRYWRFIVSRERFNHI	-0.207 ± 0.78
FMIHMLTGSLLRVNDCNLGE	0.987 ± 0.64
FMLERYFQ	-0.157 ± 0.24
FMLVAG	0.746 ± 0.53
FMRDFSGCSNDRFDGDLALC	0.024 ± 0.62
FMVKHSDDRGYLCFLGIEKV	0.209 ± 0.93
FMYAQMFPTAVQDYVK	inactive
FMYTDPDSVPQGSDTTSLAL	-0.129 ± 0.46

Substance	amyloid nucleation score
FNDRPVWVFCLRWWDSSVNS	-0.857 ± 0.84
FNFEFLTCL	inactive
FNKQFCK	0.776 ± 0.44
FNLRKRRA	0.205 ± 0.38
FNRENGRNFALVVCLLDRFG	1.41 ± 0.17
FNRNRIGGEIVMSNNYMYHS	1.58 ± 0.33
FNSARGSLVPRFPRGEQR	-0.787 ± 1.9
FNSRAICGEIVNIPHQSPGD	1.16 ± 0.67
FNVGLPLAGIISTKTD	-1.83 ± 2.7
FNWLTVSAFHQHRTLTMNMY	0.216 ± 0.3
FNYHRRPLNYISNRQYGGLS	inactive
FNYVILTFWVKYTFSAHCV	-0.271 ± 0.64
FNYYYLVEWGDGASIRIASI	-0.473 ± 1.4
FPCALSYAGMVSTVRALRKF	0.228 ± 0.8
FPFFLMCMSSGFYSV	2.35 ± 0.25
FPLCSCHCYSSTWMCYRASL	0.048 ± 0.97
FPLGTQDRIIRFVESQYDSM	-0.516 ± 1.7
FPRHYCTYWG	-0.157 ± 0.36
FQARHIFHVFLVSSSRVRLT	1.65 ± 0.47
FQCVILVPG	1.03 ± 0.74
FQGMYWNGFSSSSMSAATPR	0.157 ± 0.52
FQWNAANYANSYPCKLLCSA	1.78 ± 0.21
FQYGLGMRVRWKDAMLIRTR	inactive
FREFWPGLYYTTPYKLSNHC	-2.14 ± 1.1

Substance	amyloid nucleation score
FRKEMIFYS	1.54 ± 0.47
FRKTMLWVLVVMGPIFTGSR	0.548 ± 0.87
FRNLTVGAWRPMPGERMPIG	-0.182 ± 0.42
FRSGTHWSMDFGHAKEIRR	1.39 ± 0.14
FRSTPWNPMSTELVIFSPSV	1.16 ± 0.43
FRVMILLLTEMWSMESNRDL	3.4 ± 0.14
FRVYFIVRVPYI	1.36 ± 0.52
FRWRSSGGLVCFLDAVVVSV	-0.249 ± 0.38
FSALPTLASGLGFGR	0.604 ± 0.73
FSDVCGPSPLCW	0.142 ± 0.44
FSFDLLSVESGITNV	-0.054 ± 0.82
FSFVSECGLAGFYPRE	0.35 ± 0.55
FSGGGNITACGCV	-0.385 ± 0.65
FSGVTMR	1.7 ± 0.32
FSHIELLERAVLMSRVRFLW	-0.514 ± 1.5
FSHLKYNSVHFIPLRDFDSL	0.938 ± 0.41
FSLCDSKSKWLLYCSGSFNL	2.69 ± 0.14
FSPRIALVFRKYQGMASQPP	4.45 ± 0.061
FSRCCTFSSDYFNARCIERN	1.22 ± 0.23
FSRFWISSKHT	-1.33 ± 1.3
FSSCLTMRLV	-0.365 ± 1.6
FSSSTRSLNNPLL	0.006 ± 0.44
